Test results as given in patent US20140056882A1.

Molecular target: mouse G-CSF (mGCSF, R&D Systems Cat#414-CS) (mouse) (UniProt P09920)
Assay: cell-based or functional assay

UniProt P09920, sequence (P09920 31-208 limits assumed): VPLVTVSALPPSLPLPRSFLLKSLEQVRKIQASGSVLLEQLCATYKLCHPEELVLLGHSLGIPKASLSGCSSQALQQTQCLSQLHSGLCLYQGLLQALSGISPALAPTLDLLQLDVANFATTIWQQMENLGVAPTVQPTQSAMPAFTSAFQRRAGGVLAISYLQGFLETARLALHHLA

Substance: R&D Systems antibody MAB414 (rat anti-mouse G-CSF monoclonal antibody, clone 67604)
- IC50, inhibition of mG-CSF proliferation of hG-CSFR BaF3 cells (MTS reduction): 0.01 nM

Substance: soluble hG-CSFR-Fc protein (from UniProt Q99062 25-332) (Fc fusion)
- IC50, inhibition of mG-CSF proliferation of hG-CSFR BaF3 cells (MTS reduction): 0.022 nM
